Values of other authors as cited in PMC7662862.

How the values were obtained:
[1] = target: Merlin N-terminal part (FERM) (Homo sapiens) (UniProt P35240); test: SPR
CRB3 (Homo sapiens) = CRB3 (Homo sapiens) (UniProt Q9BUF7); test: ITC
Sequence of UniProt Q9BUF7 (Q9BUF7 27-120): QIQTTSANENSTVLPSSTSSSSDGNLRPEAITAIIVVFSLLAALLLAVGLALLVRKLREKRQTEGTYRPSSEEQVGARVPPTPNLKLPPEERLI

Sequence of UniProt P35240 (P35240 22-311): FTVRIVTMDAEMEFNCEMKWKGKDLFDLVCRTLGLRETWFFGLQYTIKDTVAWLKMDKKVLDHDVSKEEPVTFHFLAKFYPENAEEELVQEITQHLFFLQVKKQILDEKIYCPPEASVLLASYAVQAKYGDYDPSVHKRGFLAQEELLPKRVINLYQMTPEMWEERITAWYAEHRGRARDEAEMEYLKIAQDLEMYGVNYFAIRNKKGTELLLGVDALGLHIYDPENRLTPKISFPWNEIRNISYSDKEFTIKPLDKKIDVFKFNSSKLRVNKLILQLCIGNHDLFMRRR

MPP1 (from UniProt Q00013)
Kd [1]: 3.7 nM

MPP5 PDZ-SH3-GUK (from UniProt Q8N3R9)
Kd (CRB3 (Homo sapiens)): 70 nM
